# Source: publication PMC314469, “Protein Interaction Networks by Proteome Peptide Scanning” (PLoS Biology, 2004)
# T1: Boi1 SH3 (BOI1_YEAST), P38041
# T1 chain: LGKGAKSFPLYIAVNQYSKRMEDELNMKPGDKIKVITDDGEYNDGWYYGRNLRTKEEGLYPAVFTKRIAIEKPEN
# T2: Yfr024 SH3 (LSB3_YEAST), P43603
# T2 chain: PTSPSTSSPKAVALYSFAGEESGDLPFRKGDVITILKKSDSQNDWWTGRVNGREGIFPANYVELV
# T3: Rvs167 SH3 (RV167_YEAST), P39743
# T3 chain: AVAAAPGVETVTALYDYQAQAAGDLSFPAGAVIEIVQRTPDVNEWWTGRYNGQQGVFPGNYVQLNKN
# T4: Myo5 SH3 (MYO5_YEAST), Q04439
# T4 chain: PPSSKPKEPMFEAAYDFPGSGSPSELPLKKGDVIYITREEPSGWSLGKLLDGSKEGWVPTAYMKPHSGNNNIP
# T5: Yhr016c SH3 (YSC84_YEAST), P32793
# T5 chain: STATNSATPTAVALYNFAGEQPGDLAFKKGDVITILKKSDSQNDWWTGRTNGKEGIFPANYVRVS
# T6: Boi2 SH3 (BOI2_YEAST), P39969
# T6 chain: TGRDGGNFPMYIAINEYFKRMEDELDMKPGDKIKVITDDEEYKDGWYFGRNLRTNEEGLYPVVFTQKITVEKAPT
# Biological target: T1, Boi1 SH3 (BOI1_YEAST), P38041
# Assay: SPOT array
row,Binder,"normalised SPOT signal, Boehringer light units (BLU); mean over the file's lines of this peptide"
1,PANPKILPKIPSGA [YPL137C 1165-1178],158
2,NSVIRGSPGLPDTL [YPL066W 13-26],228
3,NTIIKLFPYIPIPV [YLR142W 90-103],88.2
4,NTINKSNPQGPSDN [YMR067C 383-396],310
5,NTIIKFDPGRPIYN [YKL178C 251-264],49.7
6,NSFSKNDPNFPILK [YFL036W 156-169],203
7,NSGEKIYPQEPPIS [YJL020C 582-595],53.9
8,PSKKKSKPKVPAKN [YNL106C 1153-1166],383
9,NTLLKVVPQEPTAV [YPR029C 360-373],1110
10,NSTVRRKPHSPNKK [YDR223W 8-21],481
11,NSNVRIPPTVPSKI [YGR198W 3-16],178
12,NYHHRETPPPPPSN [YPL055C 201-214],58.5
13,NVLLKAKPNDPAAT [YGR123C 104-117],1780
14,NTVEKLQPGLPVII [YBR056W 255-268],41

# Biological target: Sho1 SH3 (SHO1_YEAST), P40073
# Assay: SPOT array
# Chain of Sho1 SH3 (SHO1_YEAST), P40073 (P40073 295-366): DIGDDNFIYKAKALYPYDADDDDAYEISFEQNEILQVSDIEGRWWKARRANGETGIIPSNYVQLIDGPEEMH
row,Binder,"normalised SPOT signal, Boehringer light units (BLU); mean over the file's lines of this peptide"
1,PANPKILPKIPSGA [YPL137C 1165-1178],16400
2,NSVIRGSPGLPDTL [YPL066W 13-26],35.5
3,NTIIKLFPYIPIPV [YLR142W 90-103],42.7
4,NTINKSNPQGPSDN [YMR067C 383-396],57.6
5,NTIIKFDPGRPIYN [YKL178C 251-264],144
6,NSFSKNDPNFPILK [YFL036W 156-169],106
7,NSGEKIYPQEPPIS [YJL020C 582-595],25.7
8,PSKKKSKPKVPAKN [YNL106C 1153-1166],483
9,NTLLKVVPQEPTAV [YPR029C 360-373],75.6
10,NSTVRRKPHSPNKK [YDR223W 8-21],147
11,NSNVRIPPTVPSKI [YGR198W 3-16],1460
12,NYHHRETPPPPPSN [YPL055C 201-214],70
13,NVLLKAKPNDPAAT [YGR123C 104-117],126
14,NTVEKLQPGLPVII [YBR056W 255-268],2.8

# Biological target: T2, Yfr024 SH3 (LSB3_YEAST), P43603
# Assay: SPOT array
row,Binder,"normalised SPOT signal, Boehringer light units (BLU); mean over the file's lines of this peptide"
1,PANPKILPKIPSGA [YPL137C 1165-1178],93.9
2,NSVIRGSPGLPDTL [YPL066W 13-26],241
3,NTIIKLFPYIPIPV [YLR142W 90-103],84.5
4,NTINKSNPQGPSDN [YMR067C 383-396],163
5,NTIIKFDPGRPIYN [YKL178C 251-264],63.3
6,NSFSKNDPNFPILK [YFL036W 156-169],58.8
7,NSGEKIYPQEPPIS [YJL020C 582-595],22.7
8,PSKKKSKPKVPAKN [YNL106C 1153-1166],565
9,NTLLKVVPQEPTAV [YPR029C 360-373],116
10,NSTVRRKPHSPNKK [YDR223W 8-21],821
11,NSNVRIPPTVPSKI [YGR198W 3-16],1510
12,NYHHRETPPPPPSN [YPL055C 201-214],323
13,NVLLKAKPNDPAAT [YGR123C 104-117],63.4
14,NTVEKLQPGLPVII [YBR056W 255-268],33.6

# Biological target: T3, Rvs167 SH3 (RV167_YEAST), P39743
# Assay: SPOT array
row,Binder,"normalised SPOT signal, Boehringer light units (BLU); mean over the file's lines of this peptide"
1,PANPKILPKIPSGA [YPL137C 1165-1178],34.3
2,NSVIRGSPGLPDTL [YPL066W 13-26],251
3,NTIIKLFPYIPIPV [YLR142W 90-103],60.5
4,NTINKSNPQGPSDN [YMR067C 383-396],93.5
5,NTIIKFDPGRPIYN [YKL178C 251-264],72.3
6,NSFSKNDPNFPILK [YFL036W 156-169],82.4
7,NSGEKIYPQEPPIS [YJL020C 582-595],43.4
8,PSKKKSKPKVPAKN [YNL106C 1153-1166],36.2
9,NTLLKVVPQEPTAV [YPR029C 360-373],62.5
10,NSTVRRKPHSPNKK [YDR223W 8-21],722
11,NSNVRIPPTVPSKI [YGR198W 3-16],155
12,NYHHRETPPPPPSN [YPL055C 201-214],129
13,NVLLKAKPNDPAAT [YGR123C 104-117],121
14,NTVEKLQPGLPVII [YBR056W 255-268],16.6

# Biological target: T4, Myo5 SH3 (MYO5_YEAST), Q04439
# Assay: SPOT array
row,Binder,"normalised SPOT signal, Boehringer light units (BLU); mean over the file's lines of this peptide"
1,PANPKILPKIPSGA [YPL137C 1165-1178],164
2,NSVIRGSPGLPDTL [YPL066W 13-26],151
3,NTIIKLFPYIPIPV [YLR142W 90-103],204
4,NTINKSNPQGPSDN [YMR067C 383-396],76.2
5,NTIIKFDPGRPIYN [YKL178C 251-264],272
6,NSFSKNDPNFPILK [YFL036W 156-169],160
7,NSGEKIYPQEPPIS [YJL020C 582-595],112
8,PSKKKSKPKVPAKN [YNL106C 1153-1166],580
9,NTLLKVVPQEPTAV [YPR029C 360-373],154
10,NSTVRRKPHSPNKK [YDR223W 8-21],956
11,NSNVRIPPTVPSKI [YGR198W 3-16],423
12,NYHHRETPPPPPSN [YPL055C 201-214],318
13,NVLLKAKPNDPAAT [YGR123C 104-117],156
14,NTVEKLQPGLPVII [YBR056W 255-268],280

# Biological target: T5, Yhr016c SH3 (YSC84_YEAST), P32793
# Assay: SPOT array
row,Binder,"normalised SPOT signal, Boehringer light units (BLU); mean over the file's lines of this peptide"
1,PANPKILPKIPSGA [YPL137C 1165-1178],5.1
2,NSVIRGSPGLPDTL [YPL066W 13-26],296
3,NTIIKLFPYIPIPV [YLR142W 90-103],211
4,NTINKSNPQGPSDN [YMR067C 383-396],46.5
5,NTIIKFDPGRPIYN [YKL178C 251-264],10.4
6,NSFSKNDPNFPILK [YFL036W 156-169],57.1
7,NSGEKIYPQEPPIS [YJL020C 582-595],16.6
8,PSKKKSKPKVPAKN [YNL106C 1153-1166],62
9,NTLLKVVPQEPTAV [YPR029C 360-373],311
10,NSTVRRKPHSPNKK [YDR223W 8-21],1830
11,NSNVRIPPTVPSKI [YGR198W 3-16],113
12,NYHHRETPPPPPSN [YPL055C 201-214],178
13,NVLLKAKPNDPAAT [YGR123C 104-117],310
14,NTVEKLQPGLPVII [YBR056W 255-268],12

# Biological target: T6, Boi2 SH3 (BOI2_YEAST), P39969
# Assay: SPOT array
row,Binder,"normalised SPOT signal, Boehringer light units (BLU); mean over the file's lines of this peptide"
1,PANPKILPKIPSGA [YPL137C 1165-1178],0.9
2,NSVIRGSPGLPDTL [YPL066W 13-26],35
3,NTIIKLFPYIPIPV [YLR142W 90-103],29.7
4,NTINKSNPQGPSDN [YMR067C 383-396],30.9
5,NTIIKFDPGRPIYN [YKL178C 251-264],17.6
6,NSFSKNDPNFPILK [YFL036W 156-169],34.2
7,NSGEKIYPQEPPIS [YJL020C 582-595],0
8,PSKKKSKPKVPAKN [YNL106C 1153-1166],32.8
9,NTLLKVVPQEPTAV [YPR029C 360-373],62.6
10,NSTVRRKPHSPNKK [YDR223W 8-21],102
11,NSNVRIPPTVPSKI [YGR198W 3-16],16.9
12,NYHHRETPPPPPSN [YPL055C 201-214],59.3
13,NVLLKAKPNDPAAT [YGR123C 104-117],29.5
14,NTVEKLQPGLPVII [YBR056W 255-268],33.2
